We go through three molecules from patent publication US20050037961A1 (BAYLOR COLLEGE OF MEDICINE, published 2005).

Sequences and labels used below:
B1: Id1, endogenous cardiac bHLH transcription factor (other, mouse, UniProt P20067 1-168, looked up)
chain: MKVASGSAAAAAGPSCSLKAGRTAGEVVLGLSEQSVAISRCAGTRLPALLDEQQVNVLLYDMNGCYSRLKELVPTLPQNRKVSKVEILQHVIDYIRDLQLELNSESEVGTTGGRGLPVRAPLSTLNGEISALAAEVRSESEYYIILQWETEATGGGCPPSLLFRRIAI
B2: CRP2ZF2+ZF3 (aa 35-145) (other, rat, UniProt Q62908 35-145, looked up, not shown: small tags and cut ends)
chain: FLCMVCRKNLDSTTVAIHDEEIYCKSCYGKKYGPKGYGYGQGAGTLNMDRGERLGIKPESAQPHRPTTNPNTSKFAQKYGGAEKCSRCGDSVYAAEKIIGAGKPWHKNCFR
notes: range 35-145; also called C2ZF2+ZF3
B3: FLAG-tagged rat CRP2 (αMHC-CRP2 transgene) (other, UniProt Q62908 1-193, looked up, not shown: small tags and cut ends)
chain: MPVWGGGNKCGACGRTVYHAEEVQCDGRTFHRCCFLCMVCRKNLDSTTVAIHDEEIYCKSCYGKKYGPKGYGYGQGAGTLNMDRGERLGIKPESAQPHRPTTNPNTSKFAQKYGGAEKCSRCGDSVYAAEKIIGAGKPWHKNCFRCAKCGKSLESTTLTEKEGEIYCKGCYAKNFGPKGFGYGQGAGALVHAQ
notes: Expressed in cardiomyocytes of transgenic mice and assayed in nuclear and cytoplasmic heart extracts; also called FLAG-CRP2; FLAG-tagged CRP2

The target of experiment [1] is B3. In words: co-IP from nuclear extracts of αMHC-CRP2 transgenic mouse hearts.
Experiment [2] deals with T1, endogenous SRF (αMHC-CRP2 mouse heart nuclear extract) (mouse, UniProt Q9JM73 1-504).
T1 sequence (looked up): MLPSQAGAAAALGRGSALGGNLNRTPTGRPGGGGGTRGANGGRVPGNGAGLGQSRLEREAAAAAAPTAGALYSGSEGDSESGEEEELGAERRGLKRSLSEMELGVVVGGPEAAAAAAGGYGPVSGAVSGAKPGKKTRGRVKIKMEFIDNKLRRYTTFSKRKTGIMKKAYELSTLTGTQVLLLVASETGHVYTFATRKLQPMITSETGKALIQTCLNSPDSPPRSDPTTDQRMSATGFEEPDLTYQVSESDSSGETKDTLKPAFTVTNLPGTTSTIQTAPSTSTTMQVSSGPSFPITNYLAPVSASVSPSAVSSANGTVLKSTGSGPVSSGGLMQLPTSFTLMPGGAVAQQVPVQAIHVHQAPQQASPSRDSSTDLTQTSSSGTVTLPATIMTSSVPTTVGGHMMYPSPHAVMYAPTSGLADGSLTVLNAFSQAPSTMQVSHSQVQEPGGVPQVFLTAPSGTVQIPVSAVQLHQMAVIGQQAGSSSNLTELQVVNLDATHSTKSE
Described as above.

The target of experiment [3] is endogenous GATA6 (αMHC-CRP2 mouse heart nuclear extract) (mouse, UniProt Q61169 1-589, limits assumed). The experiment is described as above.
A further experiment has as its target T2, GST-SRF (human, UniProt P11831 1-508).
T2 construct: also called GST-SRF fusion protein; not shown: glutathione S-transferase encoded by vector pGEX-2T
T2 sequence (looked up): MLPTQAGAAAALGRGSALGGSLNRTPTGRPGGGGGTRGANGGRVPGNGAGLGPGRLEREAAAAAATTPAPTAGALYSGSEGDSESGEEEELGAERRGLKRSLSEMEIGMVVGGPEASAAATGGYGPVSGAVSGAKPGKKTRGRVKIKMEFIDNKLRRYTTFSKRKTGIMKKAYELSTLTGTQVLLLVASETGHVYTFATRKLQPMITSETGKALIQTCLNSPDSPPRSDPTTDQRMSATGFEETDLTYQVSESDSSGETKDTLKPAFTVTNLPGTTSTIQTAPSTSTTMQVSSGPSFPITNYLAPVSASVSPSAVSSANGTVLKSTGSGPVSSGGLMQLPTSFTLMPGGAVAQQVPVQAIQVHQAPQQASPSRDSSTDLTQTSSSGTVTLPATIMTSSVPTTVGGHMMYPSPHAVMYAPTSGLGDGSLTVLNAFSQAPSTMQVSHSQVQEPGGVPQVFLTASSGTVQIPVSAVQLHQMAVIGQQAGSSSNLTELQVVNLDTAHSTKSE
Briefly: GST-SRF pull-down of 35S-labelled in vitro translated protein.

Experiment [4] deals with T1, endogenous SRF (αMHC-CRP2 mouse heart …). In words: co-IP from nuclear extracts of αMHC-CRP2 transgenic mouse hearts, immunoblot. (A western blot detects proteins with antibodies after separation by electrophoresis.)

Sequence of endogenous GATA6 (αMHC-CRP2 mouse heart nuclear extract) (Q61169 whole entry): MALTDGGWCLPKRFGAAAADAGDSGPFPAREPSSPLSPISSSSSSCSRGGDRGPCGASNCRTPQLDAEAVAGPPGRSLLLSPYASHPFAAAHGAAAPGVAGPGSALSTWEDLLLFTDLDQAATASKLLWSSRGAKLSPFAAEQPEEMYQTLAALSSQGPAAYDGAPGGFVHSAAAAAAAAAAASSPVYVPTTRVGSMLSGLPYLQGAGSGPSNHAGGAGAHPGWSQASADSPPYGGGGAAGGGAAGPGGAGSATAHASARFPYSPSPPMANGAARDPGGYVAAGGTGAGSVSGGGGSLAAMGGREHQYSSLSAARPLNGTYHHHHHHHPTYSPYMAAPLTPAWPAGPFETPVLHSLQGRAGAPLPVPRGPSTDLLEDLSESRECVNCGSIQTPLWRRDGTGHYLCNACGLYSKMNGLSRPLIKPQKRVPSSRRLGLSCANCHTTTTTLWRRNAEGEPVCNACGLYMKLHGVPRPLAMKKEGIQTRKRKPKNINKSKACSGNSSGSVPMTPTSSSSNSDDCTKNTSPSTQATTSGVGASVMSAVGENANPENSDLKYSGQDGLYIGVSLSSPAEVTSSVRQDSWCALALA

For B1, the binding result in experiment [1], in experiment [2] and in experiment [3] was “no binding” throughout.

Turning to B2, the binding result with GST-SRF is “no binding”.

As to B3, the binding result in experiment [4] is on record as “binds”.
